Results from article PMC9274624.

Key:
[1] = target: bovine ACE2 extracellular domain (residues 1-740) fused with the Fc domain of mouse IgG (bovine) (UniProt Q58DD0); experiment: SPR
[2] = target: cat ACE2 extracellular domain (residues 1-740) fused with the Fc domain of mouse IgG (cat) (UniProt Q56H28); experiment: SPR
Sequence of UniProt Q56H28 (Q56H28 18-740): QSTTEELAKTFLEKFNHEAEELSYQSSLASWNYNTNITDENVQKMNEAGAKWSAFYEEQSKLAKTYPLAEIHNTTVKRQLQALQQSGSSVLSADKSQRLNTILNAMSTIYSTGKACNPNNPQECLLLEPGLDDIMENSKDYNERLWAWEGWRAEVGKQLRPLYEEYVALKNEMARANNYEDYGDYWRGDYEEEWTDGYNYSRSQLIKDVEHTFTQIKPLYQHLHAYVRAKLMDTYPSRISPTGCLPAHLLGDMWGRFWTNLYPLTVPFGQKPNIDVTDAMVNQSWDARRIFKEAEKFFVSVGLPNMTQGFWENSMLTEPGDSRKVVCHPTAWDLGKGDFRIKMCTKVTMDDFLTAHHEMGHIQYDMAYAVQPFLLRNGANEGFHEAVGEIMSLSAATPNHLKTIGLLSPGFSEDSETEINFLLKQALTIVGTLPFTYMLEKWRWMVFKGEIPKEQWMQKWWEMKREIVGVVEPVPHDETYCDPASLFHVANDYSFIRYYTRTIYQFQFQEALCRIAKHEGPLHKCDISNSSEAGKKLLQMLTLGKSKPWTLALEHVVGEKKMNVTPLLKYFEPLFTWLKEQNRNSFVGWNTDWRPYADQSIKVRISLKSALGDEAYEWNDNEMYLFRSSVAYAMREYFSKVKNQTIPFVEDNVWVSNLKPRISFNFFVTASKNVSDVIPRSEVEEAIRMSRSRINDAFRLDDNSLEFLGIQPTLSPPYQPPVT

Sequence of UniProt Q58DD0 (Q58DD0 18-740): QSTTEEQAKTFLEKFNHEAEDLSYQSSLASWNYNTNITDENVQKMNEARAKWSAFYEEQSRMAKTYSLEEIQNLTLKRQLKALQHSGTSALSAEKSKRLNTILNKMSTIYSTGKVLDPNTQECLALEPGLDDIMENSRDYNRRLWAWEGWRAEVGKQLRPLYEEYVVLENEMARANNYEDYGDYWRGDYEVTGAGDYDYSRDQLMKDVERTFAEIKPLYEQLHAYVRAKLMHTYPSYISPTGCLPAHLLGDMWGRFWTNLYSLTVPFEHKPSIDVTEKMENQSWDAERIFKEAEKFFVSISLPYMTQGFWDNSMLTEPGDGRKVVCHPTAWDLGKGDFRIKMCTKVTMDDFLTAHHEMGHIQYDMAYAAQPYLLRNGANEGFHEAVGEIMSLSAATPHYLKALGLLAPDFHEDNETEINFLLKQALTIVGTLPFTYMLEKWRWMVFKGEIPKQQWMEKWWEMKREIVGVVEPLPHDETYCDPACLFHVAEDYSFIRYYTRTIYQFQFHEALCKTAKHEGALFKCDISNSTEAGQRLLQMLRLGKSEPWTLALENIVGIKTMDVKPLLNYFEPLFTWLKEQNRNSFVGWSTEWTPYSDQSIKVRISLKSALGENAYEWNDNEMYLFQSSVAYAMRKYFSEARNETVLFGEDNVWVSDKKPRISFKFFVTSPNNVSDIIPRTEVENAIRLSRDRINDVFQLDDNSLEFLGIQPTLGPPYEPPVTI

SARS-CoV-2 Delta RBD (residues 319-541) (from UniProt P0DTC2 319-541) (domain or fragment)
Kd [1]: 71.3 nM | Kd [2]: 53.4 nM
